Sequences and labels used below:
B1: OR4K15 (parent)
chain: GUUAACGGUCAUAGGCCAUGGAAACUAGGAGCACCAUUUCGCUGCCAGUGAAGAAAUGAACAAAGAAAAUCUGGGCCAGGCAGGCAUCAAAAGAAAUAGUCUUGCGCUCAACCAGAAAGUCUGUAAUCAUUUUAAGGGUA

Self-cleavage data for 167 variants are collected here from the RNAGym collection of RNA variant scans (doi:10.7554/elife.90254).

In this series the parent is B1. Put plainly: self-cleavage, relative activity (ratio to wild type); higher = more cleavage; in vitro, sequencing; the parent is a self-cleaving ribozyme.
Regarding A23G A78U, the self-cleavage is 0.36.
On to G21C A126G, for which the self-cleavage was 1.63.
Regarding A22G C113U, the self-cleavage worked out at 0.14.
The value for G20A U97A was 2.67; that for A23G A92C was 1.29.
The value for A23G U38C was 1.38.
For the variant A23G A116U, the self-cleavage came to 0.3.
The value for A23G G84A was 1.58.
Consider A22G C46G, for which the self-cleavage was 1.35.
A22U G44A: the self-cleavage turned out to be 1.87.
To A22U A55G belongs 0.73; to A22G G106A, 0.03.
As for G20A A110U, the self-cleavage stood at 1.39.
With A22G A59G, the self-cleavage turned out to be 1.07.
On to A22G U133C, for which the self-cleavage was 0.65.
To A22G U26A belongs 0.67; to A22G U26C, 1.02.
As to A23C A117G, the self-cleavage stood at 2.19.
As to A22G G48U, the self-cleavage was 0.9.
To A23G U122A belongs 1.72.
The value for G20A U72A was 0.06; that for A22G U108C was 0.03.
Take A22G A78U: the self-cleavage was 0.32.
The value for A22G A78G was 0.27.
To A22G A54U belongs 1.08.
To A22U A69G belongs 1; to A22U G83A, 0.93; to G20A U132C, 1.92.
As for G20A A90G, the self-cleavage came to 0.76.
Consider G21U U37C, for which the self-cleavage turned out to be 1.85.
The value for A22U A51U was 1.14.
Consider A22U A140G, for which the self-cleavage was 1.41.
To A23G A86C belongs 1.06.
The value for A23G G75C was 0.16.
To A22U G74U belongs 0.27; to A22U G74A, 0.1.
As to G21A U132A, the self-cleavage amounted to 1.94.
As for A23C A59U, the self-cleavage came out at 1.77.
Turning to A23C A59G, the self-cleavage came out at 0.63.
To A22G G83A belongs 1.27; to A22G G83U, 0.54; to G20U A33U, 0.94.
Consider A22U A59G, for which the self-cleavage is 1.48.
To A22U A59U belongs 1.71; to A22G C112A, 0.05.
As for G21A A96C, the self-cleavage is 0.6.
To A22G U97A belongs 0.96.
To A22G U97C belongs 1.52; to A23U A63G, 0.92.
The value for A23G A95G was 1.59.
A22G A67G: the self-cleavage was 1.16.
To A22U U103C belongs 1.66; to A22G A36G, 1.4; to A23G, 0.97.
A23U: the self-cleavage stood at 1.19.
To A23C belongs 0.9; to A22U G65U, 0.33; to G21A A66G, 1.12.
Turning to A22G U122G, the self-cleavage was 1.67.
A22G U122C: the self-cleavage came out at 0.86.
To A23C A114U belongs 0.01; to G21A A55G, 1.29.
To A22C A69U belongs 1.74; to G20U U97C, 0.63; to G21A A33G, 0.33.
For the variant A22U U132C, the self-cleavage came to 1.99.
To A23G A47G belongs 0.86.
The value for A23G A47U was 0.77.
To G20A U49C belongs 1.6; to A22U U139A, 1.63; to G20A A116G, 0.47.
In the case of G21C A118G, the self-cleavage turned out to be 1.14.
To A23G U43A belongs 0.88; to G21C A78G, 0.27.
To A23G U39A belongs 0.98; to A23G G104A, 0.03.
In the case of A22C U108A, the self-cleavage was 0.02.
The value for A23G U133C was 1.35; that for A22G C105U was 0.25.
Regarding A22G A27U, the self-cleavage is 1.2.
With A22G A92U, the self-cleavage amounted to 1.94.
The value for A22G A92G was 1.08; that for A22G U132C was 1.28.
To A22G U132A belongs 1.93.
Consider A23G G137A, for which the self-cleavage is 1.04.
For the variant A22G A91C, the self-cleavage was 1.93.
The value for A22G A91U was 1.06; that for A22G A91G was 0.49.
To A22U C121U belongs 0; to A23G U132C, 1.07.
To A23G U132A belongs 0.86.
As to A23G A33U, the self-cleavage was 1.9.
The value for A23G A33G was 0.84; that for A23G A33C was 1.52; that for A22G A135U was 1.86.
The value for A22G A135G was 1.54; that for A22G A51U was 1.24.
The value for A23G A27G was 0.89; that for A22G A55G was 1.16.
On to A22G A55U, for which the self-cleavage was found to be 1.26.
To A22G C35A belongs 1.2; to A23U A59G, 2.4.
Consider A22G A129C, for which the self-cleavage was determined as 1.08.
To A22G A30G belongs 0.99.
Consider A22G A30U, for which the self-cleavage came out at 1.9.
As to G21C A68G, the self-cleavage is 2.19.
To G21U A59G belongs 1.68.
For the variant A22G C42U, the self-cleavage is 1.45.
For A22G C42A, the self-cleavage stood at 0.91.
Consider A23C A51U, for which the self-cleavage was determined as 1.46.
For G21A U102C, the self-cleavage is 2.29.
Take G20A A68G: the self-cleavage was found to be 1.37.
The value for G21A was 0.62.
On to G21U, for which the self-cleavage was determined as 1.51.
Turning to G21C, the self-cleavage is 0.85.
Turning to A23G U49A, the self-cleavage turned out to be 1.12.
On to A23G U49G, for which the self-cleavage is 1.02.
As for A22U C105U, the self-cleavage was found to be 0.18.
A23U A86C: the self-cleavage came to 0.82.
A23G C77U: the self-cleavage stood at 2.07.
To G21C U102C belongs 2.26; to A23G A51G, 1.33.
As for A23G A94U, the self-cleavage worked out at 1.54.
The value for A22G A52G was 0.91; that for G21A A86U was 2.01; that for A23G C42G was 1.11.
In the case of G21A U130C, the self-cleavage amounted to 0.53.
To A22C A30G belongs 1.
On to A23G A90U, for which the self-cleavage worked out at 1.85.
To G21A A126G belongs 1.09; to A22U U57G, 1.17; to A23U A24G, 1.15.
The value for A22G A117U was 0.49.
Take A22G A117G: the self-cleavage stood at 1.68.
To A23G A59U belongs 1.
Consider G20A A78G, for which the self-cleavage was 0.3.
The value for A23G G53C was 1.82.
To G21C C61U belongs 0.94; to G21A U72C, 0.3.
For A22G C25A, the self-cleavage was determined as 0.35.
To A22G C25G belongs 1.24; to G20A C121U, 2.49.
The value for A23G G83A was 1.24.
With A23G A69U, the self-cleavage came out at 1.12.
Regarding A23G U103C, the self-cleavage was 0.77.
To A22U A134G belongs 1.35; to A23G U37A, 1.24; to A22G A116G, 0.57.
To G20U A78G belongs 0.26; to A22G A89G, 0.62; to A22G A89U, 1.43.
Consider A23G G80A, for which the self-cleavage is 0.31.
The value for A22C A114U was 0.08; that for G20U A82U was 0.2.
The value for A23U A51U was 1.33; that for A23U A51G was 1.24.
The value for A22G A66C was 1.49; that for A22G A66U was 1.41.
For A22G A66G, the self-cleavage is 1.25.
In the case of G21U U87A, the self-cleavage is 1.31.
To A23G A62C belongs 0.98.
A22U A94U: the self-cleavage came out at 1.75.
With A22G C40U, the self-cleavage amounted to 1.85.
The value for A23U A33G was 1.06.
To A22U A92U belongs 2.17; to A22U A92G, 1.41; to A22U A89U, 1.91.
